Test results reported in patent US20020022718A1, “Genes identified as required for proliferation of E. coli” (priority 1999, published 2002).

What follows are molecules tested on Klebsiella pneumoniae (assay: Growth inhibition by induced E. coli antisense RNA in Klebsiella pneumoniae). Conditions: antisense RNA expression induced with IPTG, serial dilution plating.
Type: cell-based
Parameters: key: +: a positive in Table V below means that at least 10 fold more cells were required to observe a colony on the induced plate than on the non-induced plate; −: If there was no effect of antisense RNA expression in a microorganism, the clone is minus in Table V below
Procedure, shortened: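 Overnight cultures were diluted 10^2 to 10^8-fold and spotted on selective plates with or without 1 mM IPTG to induce antisense RNA from transformed E. coli sequences. After overnight growth, induced vs uninduced was scored as the log difference in the highest dilution giving colonies. No effect scores 0 (or minus); a positive score means at least 10-fold more cells were needed.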

| Molecule | Sensitivity of K. pneumoniae to antisense nucleic acid (growth inhibition, induced vs. uninduced) |
| --- | --- |
| EcXA179: antisense clone insert to E. coli valV (nucleic acid, listed as Escherichia coli) antisense: CGAACCAACGACCCCCACCATGTCAAGGTGGTGCTCTAACCAACTGAGCTATGAACGCAACGTTGTAGGTGACAACGGGGACGAATATTAGCGGCAGAGTGGGAAGGTGGCAAGAGGCAAAACGTAATTTTCTGCGCTATTTCGACCGTTTGCAGAGCTTTTAAGCAAATTGGCTATATTTTGTTGATTTGCAAGGGTGATTTTTATTCAGGATCGCATTTACATCTGATACAACCC | − |
| EcXA173: antisense clone insert to E. coli yhhJ (nucleic acid, listed as Escherichia coli) antisense: GCCACGCCCAGCATAAACAGCGGGATCGAGCCTTCAATCGGTACGCCCAGTACACCTTTCACCATCAGCACCAGCGATAATCC | − |
| EcXA164: antisense clone insert to E. coli glpC (nucleic acid, listed as Escherichia coli) antisense: TGTCGACATTCAGCACTTCCGGGTATTCGTCGCGCAGGGCAAATGTACAGGTTGAGGAGGTG | − |
| EcXA166: antisense clone insert to E. coli yihE (nucleic acid, listed as Escherichia coli) antisense: AAACGCATGGCGCGTAAAGGTTCAATCAGTCCGATTTCAGCGGTGTCGAACTCGCTAAATTCTTCA | − |
| EcXA183: antisense clone insert to E. coli ftsI (nucleic acid, listed as Escherichia coli) antisense: GTTAGTAAAGCCGATGAGGTGAGCAGTCACTTCGCCGGACGGATAGTAACGGCGAGACTCTTCACGCAGATGAATCCCCGGCAGTTTCAGTTTTTTGATGTAGTCCGCCATGTCAGGGTTCACCTGACGCGCCAGATAAATAAAGCGCCCTTTCGGGTTGGCGTTAATGCGGGCTGAAAGCTGATCCAG | − |
| EcXA165: antisense clone insert to E. coli ybeJ (nucleic acid, listed as Escherichia coli) antisense: ACTTATCAAACCATTTTTCCGCTTCACCGGAGGTCTGCACCTGAGCGATGGTGTCATCCATCAGCTTTTTGA | − |
| EcXA162: antisense clone insert to E. coli yjgV (nucleic acid, listed as Escherichia coli) antisense: AAAGGTTCGGCAAAAGCCATAACCTTTTCGTCAGCTTTGGCCGGATAAGGGACACATTGCGACGTTTCGACCATTTTATAACGGGTAAAACCACCATCAACATGAGGGAAATACATGGCACTGCCAAAAAAACGCATATCTGTACACTGATTCTCGTTATGTTCAATGCAGTATTTGCAGTGACCGCACGGTTTAGACGGATTAATGGCTACCGTTTGCCCTTCATGTAATTCTGA | − |
| EcXA169: antisense clone insert to E. coli rpsE (nucleic acid, listed as Escherichia coli) antisense: AGAGCTGTGAAGGAGAAAATACGACCACCTTTAACGGTTTTAGATACGCGGTTTACCGCGATCAGCTTTTCCTGCAGTTCGCCAGCTTGTTTTTCGATGTGAGCCATCTTACACCTCT | − |
| EcXA184: antisense clone insert to E. coli cysC (nucleic acid, listed as Escherichia coli) antisense: GCAGTTCACCGGCACGCGCTTTCTTATATAAGCCTTTGGGATCGCGGGCTTCGCAAATCGCCAGCGGCGTATCGACAAACACTTCGATAAAGCGCCCTTCTCCTACGCGTTCGCGAACCATCTGGCGTTCGGCGCGGTGTGGCGAGATAAATGCGGTCAGCACCACCAGTCCGGCTTCAACCATCAAATTCGCCACTTCACCGACGCGACGGATATTCTCTTTACGATCGGCATCGCTAAAACCGAGATCGCTGCATAATCCGTGGCGAACATTGTCGCCATCCAGCAGATACGTACTGACGCCGAGTTTATGTAACGCCTCCTCCAGCGCCCCGGCGACCGTTGAT | − |
| EcXA174: antisense clone insert to E. coli endA (nucleic acid, listed as Escherichia coli) antisense: GCCNGGCGGGAACCGACATGTTCCCACTCTACGCCGGCTGGCGCGGTTTTCATTTTTGCGCACCTGATAGCCGCACGATTGCAGATCAACAACGCCTTTTTTG | − |
| EcXA181: antisense clone insert to E. coli ppc (nucleic acid, listed as Escherichia coli) antisense: CCCGGCTGGGTTTTTTCAAGTTTACGCAGGGGTGCGGGCGATCACTTCCGGGTTGCTGGCAGCTTCGCCTTTCGGCGAAATGCTGTGGT | − |
| EcXA182: antisense clone insert to E. coli tktA (nucleic acid, listed as Escherichia coli) antisense: TCGCGAACACCGTAGTGGATGTAGTTACCCGCAGCATCTTCGTTGATTGCTTTAGAACCAGACCACAGGGTCAGGTTAGACGGCGCCAGGTCAGCAGAACCGCCGAGGAATTCCGGCAACAGCGGACCGAACGCTTCGAT | − |
| EcXA178: antisense clone insert to E. coli rpsT (nucleic acid, listed as Escherichia coli) antisense: CTGGAGATTGAGTAGATATTCTTGTTCAGAATGTATCAGCCCGATGGTTCTACGATTCTTAAGCCACGAAGAGTTCAGATAGTACAACGGCATGTCTCTTTTGACTATCTGGCAACCCGGCAGTGTGTTCTCTCACGCATCACAAAAGCAGCAGGCATAAAAAAACCCGCTTGCGCGGCTTTTTCACAAAGCTTCAGCAAATTGGCGATTAAGCCAGTTTGTTGATCTGTGCAGTCAGGTTAGCCTTATGACGTGCAGCTTTGTTTTTGTGGATCAAACCTTTAGCAGCCTGACGGTCCACGATCGGTTGCATTTCGTT | − |
| EcXA180: antisense clone insert to E. coli yjcF (nucleic acid, listed as Escherichia coli) antisense: TGTGACAGAGTGGTTATCGTTAATCAGGCAAAGAGGGAAAAACATATTATTTAAACCATTATAGCGCATAAAATATCCTTATAATTAACAAGAAAGAAAAGGCATATTCTCTGCATTATCATTTTCTACGACTGTCAAAAATCGCTCATTTTTTAATGAGTTTATTTGTTTAATATTATGGGAAAAGGTGATGCATTTGGGAGAGGAAGAGTATTCCCCGGTCAGACGACCGGGGAAGGGG | − |
| EcXA171: antisense clone insert to E. coli b0876 (nucleic acid, listed as Escherichia coli) antisense: AGCGCCGGTAACGCCCGTTAAATGTTCTCGTTCGGCTTCCCGATCGTTATTCAACAGGCTGCGTACCGTAGCGGCATATTTCTTCCCTGCTTCATCGCCATC | − |
| EcXA163: antisense clone insert to E. coli yidC (nucleic acid, listed as Escherichia coli) antisense: GAAGAGATGTTCAGGTTTTCGTTATCGGCAATGGTATCGAACTTGTATTTCTCATACTTCTCGTCAGGCGTGGAGTACGCCGCGCCACGGAA | − |
| EcXA168: antisense clone insert to E. coli b1721 (nucleic acid, listed as Escherichia coli) antisense: GAGGAACCGTGTGACACACAAAGGGTGATTATTTTCCATTGCGGCGTATAATCCTGGCTCACCATCATGTATTTTCATGGCTAAAATACTCATCACCAGTTTTTTGTTTAAAAGCTCTTGTGCTATTGGAGTGGTTAATGCATTCAGAAAGATATCGATTATTTCATCGAATCCATACAACATGGAGATATAAAGTCCAGGTGTTTCGTT | − |
| EcXA167: antisense clone insert to E. coli gatB (nucleic acid, listed as Escherichia coli, misc_feature (1)...(143): n = A,T,C or G, antisense clone insert to E. coli gatB) antisense: TATAGGGGNCTATTTCATTAACCCGACACTGGATTAATTCAACAGGAATATTATGATTCTGACACAACTCTTTAATTTCTTCCGCCGCCATCGTAGAGGTCGCAACCGCGCCTCCGCAAGCGACAATAATCTTGCGTTTCATA | − |
| EcXA175: antisense clone insert to E. coli pykA (nucleic acid, listed as Escherichia coli) antisense: TAGCTTCTTCCACATTGTCGAACTGAACGTCCAGACGGTGTTTAGAAACGTTGATGCTCGGGATTTTTTCCGCACCCAGGCAAACGCGCGCCATGGCTGCAACGGTTTCTGACGGATACTG | − |
| EcXA185: antisense clone insert to E. coli rpsK (nucleic acid, listed as Escherichia coli) antisense: CCCTGACGATCAGTGATAGTCACGATGGTGTTGTTGAAAGAAGCATGGATATGAGCCACGCCGTCAG | − |
| EcXA176: antisense clone insert to E. coli yjdH (nucleic acid, listed as Escherichia coli) antisense: TAGTTATTGGCTGTTTTGAGAATGTAATCTTCCAACTGCTTATAACTCTTCAGATGCAATAATCCGAGAATCACATGCAATTTATTCATAAATTCGTGGGATCGTTCACGAAGTGCGTCAGCATAGTTGACCAGACCGTCGAGTCGCTGCATCAGTTTACGTA | − |
| EcXA159: antisense clone insert to E. coli b0482 (nucleic acid, listed as Escherichia coli) antisense: AAAAAATGAAATTCCTCTTTGACGGGCCAATAGCGATATTGGCCATTTTTTTAGCGCAACATTTGCGGCAAATTCCCTTCTCCATACAGGTGTAGTGCACCGACCGCGACCACATATCGCCCCGGCGGCATGGCGCGTAATTTATCCCGCCAGGCGAGATTTCGCTGATGCATCAGCACATCGTACAGCGACTGACTGAACGTATTGGGCAGCGTTATATCATTATTTTGCGGCGGTGCATTCAGCCACCAGCTCATCATTTGTTGCAGCAACCGTGCGTTGGTATGCCAGTGGGTCAGCGTATCGTCCAGCAGCGCCAGTCCTTTGTCAGGGAGCTGGAGCAACATGGCAATCTGGTTTTCAGCCCCTTCCAGTTCAATCACGGGTTTATGTTGTTGCTTC | − |
